# Assay results from paper PMC13544220, “Glycemic and bodyweight effects of GIPR coding variation reflect differences in surface expression and intrinsic functional impairment” (Science Advances, 2026).
# Substitutions are numbered along the chain they refer to. Numbers in names are those of the source.
# B1: S447T (protein, UniProt P48546 22-466, looked up, variant S447T)
# Gastric inhibitory …: RAETGSKGQTAGELYQRWERYRRECQETLAAAEPPSGLACNGSFDMYVCWDYAAPNATARASCPWYLPWHHHVAAGFVLRQCGSDGQWGLWRDHTQCENPEKNEAFLDQRLILERLQVMYTVGYSLSLATLLLALLILSLFRRLHCTRNYIHINLFTSFMLRAAAILSRDRLLPRPGPYLGDQALALWNQALAACRTAQIVTQYCVGANYTWLLVEGVYLHSLLVLVGGSEEGHFRYYLLLGWGAPALFVIPWVIVRYLYENTQCWERNEVKAIWWIIRTPILMTILINFLIFIRILGILLSKLRTRQMRCRDYRLRLARSTLTLVPLLGVHEVVFAPVTEEQARGALRFAKLGFEIFLSSFQGFLVSVLYCFINKEVQSEIRRGWHHCRLRRSLGEEQRQLPERAFRALPSGSGPGEVPTSRGLTSGTLPGPGNEASRELESYC
# B2: E252D (protein)
# chain: B1 Gastric inhibitory … with E231D, T426S
# Experiments:
# Format in all cases: cell-based, human
# [1] = test system: wild-type and variant SNAP-GIPR; assay: Surface SNAP-GIPR expression (SNAP-tag labelling) in AD293 cells; conditions: for AD293 Surface: Fig S3E, mean; for Surface SNAP-GIPR expression: sheet Fig 1C;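 as to all read-outs here: scaled to the experimental average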
# Summary of the method: (§1)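 Read-out: whole-cell fluorescence of surface-only SNAP label (Alexa Fluor 647, 500 nM, 10 min, RT), wide-field 20X, several FOVs per well. Flat-field corrected, phase-contrast masked, nontransfected-well signal subtracted; normalized to experiment mean or wild-type.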
# [2] = test system: wild-type and variant SNAP-GIPR; assay: Single-concentration GIP cAMP response by HTRF in AD293 cells; conditions: Fig S3F, HTRF, mean;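 also: ratio to experiment-wide average response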
# Procedure: (§2) All variants were tested in parallel on each occasion to control for transfection efficiency differences between experiments.
# [3] = test system: wild-type and variant SNAP-GIPR; assay: Single-concentration GIP cAMP response by HTRF in INS-1 cells; conditions: Fig S3E, mean
# Procedure: as §2
# [4] = test system: wild-type and variant SNAP-GIPR; assay: Surface SNAP-GIPR expression (SNAP-tag labelling) in INS-1 cells; conditions: Fig 4G; Mean
# Summary of the method: as §1
# [5] = test system: wild-type and variant SNAP-GIPR; assay: Constitutive and agonist-mediated internalization, reversible SNAP-tag labelling, AD293 cells; design: key to Internalisation, Vehicle / Internalisation, +GIP / Internalisation, GIP-only: % internalization: residual fluorescence after Mesna vs pre-Mesna; Surface expression: unit not given here; conditions: Mean; for +GIP internalisation (100 nM) / GIP-specific internalisation (100 nM) / Constitutive internalisation (100 nM) / Surface expression: Fig 4E; for +GIP internalisation (100 nM) / GIP-specific internalisation (100 nM): GIP 100 nM; for Internalisation, +GIP / Internalisation, GIP-only / Internalisation, Vehicle: Fig S4C, AD293
# Summary of the method: (§3)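 Percentage internalization is read as the fraction of specific SNAP fluorescence that survives Mesna stripping, compared with the image taken before Mesna. Wells are imaged in TNE buffer at pH 8.6 and again after 10 min.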
# [6] = test system: wild-type and variant SNAP-GIPR; assay: cADDis cAMP imaging in AD293 cells, ensemble, expression-matched and per decile; conditions: Fig S3F, cADDis, mean;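 also: Ensemble cells as % of IBMX/FSK response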
# Summary of the method: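 Surface GIPR and cAMP are measured in individual AD293 cells coexpressing SNAP-tagged receptor and the green cADDis biosensor, imaged live at 37°C. Responses are reported ensemble, expression-matched against wild-type deciles with extremes trimmed, or within each variant's own surface deciles.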
# [7] = test system: wild-type and variant SNAP-GIPR; assay: Constitutive and agonist-mediated internalization, reversible SNAP-tag labelling, INS-1 cells; design: key to Internalisation, GIP-only / Internalisation, Vehicle / Internalisation, +GIP: % internalization: residual fluorescence after Mesna vs pre-Mesna; conditions: Mean; for +GIP internalisation (100 nM) / GIP-specific internalisation (100 nM) / Constitutive internalisation (100 nM): Fig 4G; for +GIP internalisation (100 nM) / GIP-specific internalisation (100 nM): GIP 100 nM; for Internalisation, +GIP / Internalisation, GIP-only / Internalisation, Vehicle: Fig S4C, INS-1
# Summary of the method: as §3
# [8] = column repeated, paired with cAMP 100 nM
molecule,measurement,setting,value
B1,AD293 Surface,[1]; [8],1.404
same,AD293 Surface,[1]; paired with cAMP 100 pM,1.404
same,Surface SNAP-GIPR expression,[1]; replicate 1,1.604
same,Surface SNAP-GIPR expression,[1]; replicate 2,1.279
same,Surface SNAP-GIPR expression,[1]; replicate 3,1.391
same,Surface SNAP-GIPR expression,[1]; replicate 4,2.61
same,Surface SNAP-GIPR expression,[1]; replicate 5,1.403
same,Surface SNAP-GIPR expression,[1]; replicate 6,1.423
same,Surface SNAP-GIPR expression,[1]; replicate 7,1.077
same,Surface SNAP-GIPR expression,[1]; replicate 8,1.469
same,Surface SNAP-GIPR expression,[1]; replicate 9,1.63
same,Surface SNAP-GIPR expression,[1]; replicate 10,1.374
same,Surface SNAP-GIPR expression,[1]; replicate 11,1.745
same,Surface SNAP-GIPR expression,[1]; replicate 12,1.689
same,Surface SNAP-GIPR expression,[1]; replicate 13,1.462
same,Surface SNAP-GIPR expression,[1]; replicate 14,1.46
same,Surface SNAP-GIPR expression,[1]; replicate 15,1.674
same,Surface SNAP-GIPR expression,[1]; replicate 16,1.628
same,Surface SNAP-GIPR expression,[1]; replicate 17,1.349
same,Surface SNAP-GIPR expression,[1]; replicate 18,1.205
same,Surface SNAP-GIPR expression,[1]; replicate 19,1.299
same,Surface SNAP-GIPR expression,[1]; replicate 20,1.361
same,Surface SNAP-GIPR expression,[1]; replicate 21,1.342
same,Surface SNAP-GIPR expression,[1]; replicate 22,1.393
same,Surface SNAP-GIPR expression,[1]; replicate 23,1.314
same,Surface SNAP-GIPR expression,[1]; replicate 24,1.27
same,Surface SNAP-GIPR expression,[1]; replicate 25,1.747
same,Surface SNAP-GIPR expression,[1]; replicate 26,1.476
same,Surface SNAP-GIPR expression,[1]; replicate 27,1.434
same,Surface SNAP-GIPR expression,[1]; replicate 28,1.161
same,Surface SNAP-GIPR expression,[1]; replicate 29,0.9451
same,Surface SNAP-GIPR expression,[1]; replicate 30,1.119
same,Surface SNAP-GIPR expression,[1]; replicate 31,1.316
same,Surface SNAP-GIPR expression,[1]; replicate 32,1.418
same,Surface SNAP-GIPR expression,[1]; replicate 33,1.322
same,Surface SNAP-GIPR expression,[1]; replicate 34,1.362
same,Surface SNAP-GIPR expression,[1]; replicate 35,1.415
same,Surface SNAP-GIPR expression,[1]; replicate 36,1.515
same,Surface SNAP-GIPR expression,[1]; replicate 37,1.174
same,Surface SNAP-GIPR expression,[1]; replicate 38,1.292
same,Surface SNAP-GIPR expression,[1]; replicate 39,1.035
same,Surface SNAP-GIPR expression,[1]; replicate 40,1.181
same,Surface SNAP-GIPR expression,[1]; replicate 41,1.207
same,AD293 100 pM HTRF,[2],1.563
same,AD293 100 nM HTRF,[2],1.418
same,INS-1 cAMP (100 nM),[3],1.225
same,Surface expression,[4],1.143
same,+GIP internalisation (100 nM),[5],0.6943
same,GIP-specific internalisation (100 nM),[5],0.1731
same,Constitutive internalisation (100 nM),[5],0.5211
same,Surface expression,[5],1.271
same,"Internalisation, +GIP",[5],54.6308
same,"Internalisation, GIP-only",[5],13.6704
same,"Internalisation, Vehicle",[5],40.9604
same,AD293 100 pM cADDis,[6],33.2503
same,AD293 100 nM cADDis,[6],38.05
same,+GIP internalisation (100 nM),[7],0.5789
same,GIP-specific internalisation (100 nM),[7],0.1373
same,Constitutive internalisation (100 nM),[7],0.4416
same,"Internalisation, +GIP",[7],49.3117
same,"Internalisation, GIP-only",[7],11.6867
same,"Internalisation, Vehicle",[7],37.625
B2,AD293 Surface,[1]; [8],1.407
same,AD293 Surface,[1]; paired with cAMP 100 pM,1.407
same,Surface SNAP-GIPR expression,[1]; replicate 1,1.329
same,Surface SNAP-GIPR expression,[1]; replicate 2,1.136
same,Surface SNAP-GIPR expression,[1]; replicate 3,2.323
same,Surface SNAP-GIPR expression,[1]; replicate 4,1.309
same,Surface SNAP-GIPR expression,[1]; replicate 5,1.389
same,Surface SNAP-GIPR expression,[1]; replicate 6,1.509
same,Surface SNAP-GIPR expression,[1]; replicate 7,1.009
same,Surface SNAP-GIPR expression,[1]; replicate 8,1.58
same,Surface SNAP-GIPR expression,[1]; replicate 9,1.305
same,Surface SNAP-GIPR expression,[1]; replicate 10,1.452
same,Surface SNAP-GIPR expression,[1]; replicate 11,1.297
same,Surface SNAP-GIPR expression,[1]; replicate 12,1.294
same,Surface SNAP-GIPR expression,[1]; replicate 13,1.499
same,Surface SNAP-GIPR expression,[1]; replicate 14,1.714
same,Surface SNAP-GIPR expression,[1]; replicate 15,1.276
same,Surface SNAP-GIPR expression,[1]; replicate 16,1.31
same,Surface SNAP-GIPR expression,[1]; replicate 17,1.201
same,Surface SNAP-GIPR expression,[1]; replicate 18,1.327
same,Surface SNAP-GIPR expression,[1]; replicate 19,1.07
same,Surface SNAP-GIPR expression,[1]; replicate 20,1.361
same,Surface SNAP-GIPR expression,[1]; replicate 21,1.327
same,Surface SNAP-GIPR expression,[1]; replicate 22,1.295
same,Surface SNAP-GIPR expression,[1]; replicate 23,1.346
same,Surface SNAP-GIPR expression,[1]; replicate 24,1.279
same,Surface SNAP-GIPR expression,[1]; replicate 25,1.414
same,Surface SNAP-GIPR expression,[1]; replicate 26,1.49
same,Surface SNAP-GIPR expression,[1]; replicate 27,1.461
same,Surface SNAP-GIPR expression,[1]; replicate 28,1.564
same,Surface SNAP-GIPR expression,[1]; replicate 29,1.396
same,Surface SNAP-GIPR expression,[1]; replicate 30,1.388
same,Surface SNAP-GIPR expression,[1]; replicate 31,2.074
same,Surface SNAP-GIPR expression,[1]; replicate 32,1.301
same,Surface SNAP-GIPR expression,[1]; replicate 33,1.332
same,Surface SNAP-GIPR expression,[1]; replicate 34,1.623
same,Surface SNAP-GIPR expression,[1]; replicate 35,1.576
same,Surface SNAP-GIPR expression,[1]; replicate 36,1.688
same,Surface SNAP-GIPR expression,[1]; replicate 37,1.181
same,Surface SNAP-GIPR expression,[1]; replicate 38,1.286
same,Surface SNAP-GIPR expression,[1]; replicate 39,1.291
same,Surface SNAP-GIPR expression,[1]; replicate 40,1.349
same,Surface SNAP-GIPR expression,[1]; replicate 41,1.333
same,AD293 100 pM HTRF,[2],2.258
same,AD293 100 nM HTRF,[2],1.787
same,INS-1 cAMP (100 nM),[3],1.435
same,Surface expression,[4],1.379
same,+GIP internalisation (100 nM),[5],0.7833
same,GIP-specific internalisation (100 nM),[5],0.2173
same,Constitutive internalisation (100 nM),[5],0.566
same,Surface expression,[5],1.422
same,"Internalisation, +GIP",[5],55.2271
same,"Internalisation, GIP-only",[5],15.2317
same,"Internalisation, Vehicle",[5],39.9954
same,AD293 100 pM cADDis,[6],35.9603
same,AD293 100 nM cADDis,[6],38.59
same,+GIP internalisation (100 nM),[7],0.6632
same,GIP-specific internalisation (100 nM),[7],0.1797
same,Constitutive internalisation (100 nM),[7],0.4835
same,"Internalisation, +GIP",[7],49.4067
same,"Internalisation, GIP-only",[7],13.4967
same,"Internalisation, Vehicle",[7],35.91
